Results published in publication PMC2518108.

Columns and labels:
human IGF-II (human) = test: SPR; BIAcore T100, CM5 chip; human IGF-I (120 RU) or IGF-II (138 RU) amine-coupled; IGFBP-1s injected 60 s, 5 min dissociation; 25 C, HBS (10 mM HEPES, 150 mM NaCl, 3 uM EDTA, 0.05% TWEEN-20, pH 7.4), 30 uL/min; 1:1 model fitted globally, KD = kd/ka
human IGF-I (human) = human IGF-I (human) (UniProt P05019); test: as above
Chain of human IGF-I (human) (P05019 49-118): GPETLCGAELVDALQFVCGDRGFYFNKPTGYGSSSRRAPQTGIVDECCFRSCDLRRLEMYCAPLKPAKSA

Chain of human IGFBP-1 (P08833 26-259): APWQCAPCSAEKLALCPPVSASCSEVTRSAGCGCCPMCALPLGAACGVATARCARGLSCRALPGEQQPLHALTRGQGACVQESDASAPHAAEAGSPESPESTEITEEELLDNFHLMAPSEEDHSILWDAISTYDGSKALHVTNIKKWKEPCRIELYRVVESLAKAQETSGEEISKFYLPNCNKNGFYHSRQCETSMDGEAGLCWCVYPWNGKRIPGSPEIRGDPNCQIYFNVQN

Kd (human IGF-II (human)) [nM]	koff (human IGF-II (human)) [s⁻¹]	kon (human IGF-II (human)) [M⁻¹ s⁻¹]	Kd (human IGF-I (human)) [nM]	koff (human IGF-I (human)) [s⁻¹]	kon (human IGF-I (human)) [M⁻¹ s⁻¹]	Substance
8.63	0.000457	53000	–	–	–	human IGFBP-1 (from UniProt P08833 26-259) (natural protein)
0.34	0.00029	867000	0.28	0.000332	1.18e+06	zebrafish IGFBP-1a (natural protein)
9.33	0.00926	993000	–	–	–	zebrafish IGFBP-1b (from UniProt A4K8J2 1-244) (natural protein)
